In publication PMC9600270, “Quantum Dot-Based Screening Identifies F3 Peptide and Reveals Cell Surface Nucleolin as a Therapeutic Target for Rhabdomyosarcoma” (Cancers, 2022):

Molecular target: nucleolin (cell surface, on RD and Rh30 rhabdomyosarcoma cells) (UniProt P19338)
Assay: FACS cell binding of QD conjugate
Conditions: overnight 37 C, 5' AminoC6, QD-aptamer 10 nM (Methods; 20 nM in Figure 5b legend) with adherent cells, 12 h/overnight, 5% CO2, conjugates prepared in PBS pH 7.4/1% BSA

Chain of nucleolin (cell surface, on RD and Rh30 rhabdomyosarcoma cells) (P19338 whole entry): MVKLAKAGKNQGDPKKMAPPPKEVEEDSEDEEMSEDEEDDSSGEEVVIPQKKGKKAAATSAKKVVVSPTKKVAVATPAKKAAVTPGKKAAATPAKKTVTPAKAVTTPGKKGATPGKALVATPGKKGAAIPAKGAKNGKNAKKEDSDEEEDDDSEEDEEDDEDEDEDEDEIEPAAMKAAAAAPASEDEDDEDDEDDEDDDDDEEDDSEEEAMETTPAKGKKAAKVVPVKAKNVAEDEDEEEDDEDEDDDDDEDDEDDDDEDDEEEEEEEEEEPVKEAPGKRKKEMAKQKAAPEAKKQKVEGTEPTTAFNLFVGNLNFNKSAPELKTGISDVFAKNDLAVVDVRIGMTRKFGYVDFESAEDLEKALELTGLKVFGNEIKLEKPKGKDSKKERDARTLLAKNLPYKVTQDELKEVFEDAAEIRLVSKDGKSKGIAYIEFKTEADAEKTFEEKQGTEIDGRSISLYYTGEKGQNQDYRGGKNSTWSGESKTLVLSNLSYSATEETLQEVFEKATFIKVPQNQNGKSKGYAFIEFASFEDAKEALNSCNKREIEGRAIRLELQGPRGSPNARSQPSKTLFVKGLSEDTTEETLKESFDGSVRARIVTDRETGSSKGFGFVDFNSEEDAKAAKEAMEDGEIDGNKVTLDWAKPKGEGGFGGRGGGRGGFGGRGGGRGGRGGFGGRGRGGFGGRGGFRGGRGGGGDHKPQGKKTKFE

## TTGGTGGTGGTGGTTGTGGTGGTGGTGG [AS1411 (AGRO100)]
RD cells
  binding signal (fold over QD-NC-AS1411): 8.8
Rh30 cells
  binding signal (fold over QD-NC-AS1411): 2.2
